This is an account of results in the RNAGym collection of RNA variant scans (doi:10.7554/elife.80360).

B1: CPEB3 Ribozyme (parent)
chain: GGGGGCCACAGCAGAAGCGUUCACGUCGCGGCCCCUGUCAGAUUCUGGUGAAUCUGCGAAUUCUGCUGU

This series covers variants of B1. Briefly: self-cleavage, relative activity (ratio to wild type); higher = more cleavage; co-transcriptional.
On to G31U G47C, for which the self-cleavage was determined as 0.684.

With G31U C34G, the self-cleavage stood at 0.237. For the variant G31U C34A, the self-cleavage is 0.232. The result for G31U A59U reads 0.334. The result for G31C A60U reads 0.144; that for G31C A60G, 0.226. To G31C A60C belongs 0.21; to G31U G50U, 0.754.

Turning to G31U G50C, the self-cleavage is 0.742. To G30U U55C belongs 0.287; to G30U U55G, 0.232; to G30U U55A, 0.304. The result for G31U C63U reads 0.602. The result for G31A U69G reads 1.02; that for C32A C63G, 0.344; that for C32A C63U, 0.772. Take G31C U61G: the self-cleavage was 0.158. To G31C U61C belongs 0.188; to G31C U61A, 0.179. To G31A A51G belongs 0.928. The result for G31A A51U reads 0.879.

For the variant G31A A51C, the self-cleavage came to 0.897. To C32A G41U belongs 0.362. The result for C32A G41A reads 0.344. The result for G31C C39G reads 0.235.

As to G31C C39U, the self-cleavage worked out at 0.197.

Consider G31C C39A, for which the self-cleavage was 0.186. To G30U U69A belongs 0.666. To C32A A51G belongs 0.521; to G31A G58A, 0.741; to G31A C57U, 0.34. As to G31A C57A, the self-cleavage amounted to 0.307. The result for G31C A42G reads 0.277; that for G31C A42U, 0.18; that for G31A G50C, 0.84. Take G31A G50A: the self-cleavage worked out at 0.95. The result for G31A G50U reads 0.889; that for G31A G48U, 0.931. To G31A C66G belongs 0.707; to G30U C66A, 0.278. The result for G30U C66G reads 0.216.

Take G30U C66U: the self-cleavage worked out at 0.331. Consider G30U U43A, for which the self-cleavage worked out at 0.311. On to G30U U43C, for which the self-cleavage turned out to be 0.38. To G30U U43G belongs 0.281; to G31A U53C, 0.58.

With G31A U53A, the self-cleavage was 0.554. The result for C32A G65A reads 0.638. Regarding C32A A52U, the self-cleavage is 0.645. The result for C32A A52C reads 0.374; that for G31C G41C, 0.173; that for G31C G41A, 0.201. To G31U belongs 0.782.

For G31A, the self-cleavage was determined as 0.931. For the variant G31C, the self-cleavage was determined as 0.255. The result for C32A C34A reads 0.229; that for C32A C34U, 0.362. The result for G31C G37U reads 0.203. To G31C G37C belongs 0.217; to G31C G37A, 0.19. Consider G30U C63A, for which the self-cleavage turned out to be 0.181. To G30U C63G belongs 0.261; to G31A C45A, 0.833.

With G31A C45U, the self-cleavage is 0.888. To G31A C45G belongs 0.761; to G31U U53G, 0.411. As to G31U U53A, the self-cleavage was determined as 0.545. The result for G31U G58C reads 0.611; that for G30U G37C, 0.186. Regarding G30U G37A, the self-cleavage is 0.159. On to G30U G47U, for which the self-cleavage turned out to be 0.417. Turning to G30U U62C, the self-cleavage was 0.211. To G30U U62G belongs 0.19; to G31U C32G, 0.177.

Consider G31U C32U, for which the self-cleavage was 0.32.

Take C32A G37C: the self-cleavage stood at 0.336. To G31A G47U belongs 0.915; to G31C U62G, 0.228. The result for G31A A59U reads 0.441. The result for G31A A59C reads 0.394. With G31U A40C, the self-cleavage was found to be 0.254. G31U A40G: the self-cleavage was 0.457. The result for G31C G56U reads 0.164. The result for G31C G56A reads 0.2. Take G31C G56C: the self-cleavage was 0.139.

As to G31C C45U, the self-cleavage is 0.263. To G31C C45A belongs 0.25. The result for G31C C45G reads 0.245. G31C G58A: the self-cleavage was determined as 0.21. The result for G31A C32U reads 0.534; that for G31A C32A, 0.637. The result for G30U G65C reads 0.214; that for G30U G65U, 0.162. As for C32A C45G, the self-cleavage was 0.667. To G31U U38G belongs 0.124; to G31U U38A, 0.537.

Consider G31U U38C, for which the self-cleavage amounted to 0.505. G31C C57G: the self-cleavage was determined as 0.151.

Turning to G31U U64A, the self-cleavage was 0.446. To G31U U64C belongs 0.427.

For G31A U36G, the self-cleavage was determined as 0.268.

On to G31A U36A, for which the self-cleavage worked out at 0.218.

On to G31A U36C, for which the self-cleavage is 0.669. The result for G30U U61C reads 0.243; that for G31U U44C, 0.618; that for G30U G31A, 0.196. For G30U G31C, the self-cleavage was found to be 0.149. To G31A U62A belongs 0.352.

Turning to G31A U62G, the self-cleavage came to 0.434. Regarding G31A U62C, the self-cleavage amounted to 0.406.

For the variant G31A U44G, the self-cleavage amounted to 0.585. The result for G31A U44A reads 0.808; that for G31A U44C, 0.749.

Take G31U G37U: the self-cleavage is 0.163. With G31U G37C, the self-cleavage worked out at 0.189.

Consider G31A U46A, for which the self-cleavage was 0.866. Consider C32A C33U, for which the self-cleavage was found to be 0.231. For the variant C32A C33A, the self-cleavage was 0.308. For C32A G47C, the self-cleavage amounted to 0.869. The result for C32A G47A reads 0.877; that for G31C U55A, 0.188; that for G31C U55C, 0.225. Turning to G31U C54U, the self-cleavage is 0.729.

G31U C54G: the self-cleavage came out at 0.33. To G31U A42C belongs 0.458; to G31U A42G, 0.692. The result for G31C U69G reads 0.444; that for G30U U44G, 0.308; that for G30U U44C, 0.364. For G30U U44A, the self-cleavage was determined as 0.248. Regarding C32A G48C, the self-cleavage came out at 0.862. The result for C32A G48A reads 0.875. Regarding C32A G48U, the self-cleavage is 0.901. The result for G31A U38C reads 0.762; that for G31A G41C, 0.349. The result for G31A G41U reads 0.512; that for G30U G68C, 0.825; that for C32A C39A, 0.434. To C32A C39U belongs 0.388; to G31A G56U, 0.767; to G31A G56A, 0.702. Turning to G31A G56C, the self-cleavage turned out to be 0.523. To G30U U64A belongs 0.288; to G30U U64G, 0.219. The result for G30U C54U reads 0.339; that for G31C U38G, 0.191; that for G31C U38C, 0.191. G31A C54U: the self-cleavage came out at 0.793. The result for G31A C54G reads 0.436.

For G31A C54A, the self-cleavage amounted to 0.489. Consider G31U A60U, for which the self-cleavage is 0.229. The result for G31U A60G reads 0.277. To G31C A40G belongs 0.229. To G31U U55G belongs 0.274; to G31U U55C, 0.459; to G30U G48U, 0.393. Take G30U G48C: the self-cleavage amounted to 0.416. For the variant G30U G48A, the self-cleavage was 0.455. To G31A A52C belongs 0.82. G30U G56A: the self-cleavage was found to be 0.218. The result for G30U G56C reads 0.196; that for G30U G41U, 0.229; that for G30U G41A, 0.216. To G31U G65C belongs 0.358. G31U G65U: the self-cleavage came to 0.352. The result for G31A U64G reads 0.728.

Regarding C32A, the self-cleavage was 0.866.
